The target of data set [1] is Brachypodium distachyon cinnamyl alcohol dehydrogenase 5 (BdCAD5), recombinant 6xHis-tagged (Brachypodium distachyon). Briefly: SEC. In general terms: In gel filtration, larger molecules generally elute earlier.
Substrate in data set [2]: COc1cc(/C=C/C=O)ccc1O
The data set can be described thus: purified protein. The note with it: co-substrate NADPH.

Substrate in data set [3]: COc1cc(/C=C/CO)ccc1O
Briefly: purified protein. The note with it: co-substrate NADP+, 100 mM TRIS-HCl pH 8.8, 23 °C, n = 1.

Where [4] appears, read: 100 mM sodium acetate pH 5.35, 23 °C.
The mark [5] stands for this setting: 200 mM potassium phosphate pH 6.25, 23 °C.

For orientation: stoichiometry N means the number of molecules, sites or subunits per partner or assembly. With “Brachypodium distachyon cinnamyl alcohol dehydrogenase 5 (BdCAD5), recombinant 6xHis-tagged (enzyme)”, in data set [1], the percent of peak area at the dimer position is 24% and the stoichiometry N is 2.

B1: BdCAD3 (Brachypodium distachyon) (protein)
chain: MEQGKAALGWAARDASGHLSPYNFSRRVQKDDDVTIKVLFCGICHTDLHIIKNEWGNALYPIVPGHEVVGVVTDVGPGVKNFKAGETVGVGYFLDSCRTCDSCSKGHENYCPTLVLTSNGVDYDGATTQGGFSDVVVVNQDYVVRVPDTLPPDGAAPLLCAGVTVYSPMMQYGLNAPGKHLGVVGLGGLGHMAVKFGKAFGMKVTVISSSLRKREEALDRLGADDFLVSSDAEQMKAAAGAMDGIIDTVSAGHPIVPLLELLRPMGQMVVCGAPSEPLQLPAYAVITGGKRIAGNGVGSVRDCQAMLDFAGEHGITADVEVVKMDYVNTAVERLERNDVRYRFVIDVAGSLQQGGAA
By Km is commonly meant the concentration of substrate that gives half-maximal velocity. Broadly, the Vmax is the rate approached at saturating substrate. In general, kcat refers to the maximal rate divided by the concentration of active sites. The term kcat/Km denotes the second-order rate constant that governs catalysis at low substrate concentration. Take B1: in the data set “purified protein [2]” (setting [4]), the Km was determined as 33.3 ± 3.80 µM, the Vmax was found to be 9.26 µmol/min/mg, the kcat is 8.66 s⁻¹ and the kcat/Km is 260000 M⁻¹ s⁻¹. Further, in the data set “purified protein [3]”, the Michaelis-Menten constant (Km) was 509.1 ± 134.0 µM, the Vmax is 36.7 µmol/min/mg, the kcat is 34.3 s⁻¹ and the kcat/Km was found to be 67000 M⁻¹ s⁻¹.

B2: BdCAD5 (Brachypodium distachyon) (protein)
chain: MGSIASEERTVTGWAARDADGHLSPYTYTLRKTGPEDVLVKVLYCGICHTDIHQAKNHLGASKYPMVPGHEVVGEVVEVGGEVSKYSAGDVVGVGVIVGCCRECRPCKASVEQYCNKRIWSYNDVYTDGRPTQGGFSSAMVVDQKFVVRIPAGLAPEQAAPLLCAGVTVYSPLKHFGLMSPGLRGGILGLGGVGHMGVKVAKSMGHHVTVISSSGKKRAEAMDDLGADAYLVSSDADQMAAAADSLDYVIDTVPVKHPLEPYLSLLKMDGKLVLMGVIGEPLSFVSPMVMLGRKSITGSFIGSMEETEEVLKFCVEKGLTSQIEVVKMDYLNEALERLERNDVRYRFVVDVAGSKIEDAA
Regarding B2, in “purified protein [2]” (setting [5]), the Km is 3.1 ± 0.44 µM, the maximum rate (Vmax) is 29.5 µmol/min/mg, the kcat was 38.6 s⁻¹ and the catalytic efficiency (kcat/Km) amounted to 1.29e+07 M⁻¹ s⁻¹. Further, in “purified protein [3]”, the Km was 1.44 ± 0.24 µM, the maximum rate (Vmax) turned out to be 7.91 µmol/min/mg, the kcat worked out at 10.3 s⁻¹ and the kcat/Km turned out to be 7.19e+06 M⁻¹ s⁻¹.

These data come from PMC3481213.
